These results are taken from patent publication US20240398804A1 (Dana-Farber, published 2024).

The target in assay [1] is SRC (endogenous, colon cancer cell lines) (UniProt P12931 2-536). The assay can be described thus: YAP1 immunoprecipitation from colon cancer cell lysate (SW480), immunoblot. As for the experimental part:
(§1) The indicated colon cancer cell lines were infected with shRNAs targeting YES1 and proliferation (A) or anchorage independent growth (B) was assessed. The results were normalized to cells infected with a control shRNA targeting LacZ. (C) Subcutaneous HCT116 tumors expressing a doxycycline inducible YES1 shRNA were implanted into the cecum of nude mice and after 48 h were treated or not with doxycycline. Tumors were extracted three weeks post doxycycline treatment. (D) YES1 protein levels of tumors in (C). (E) YAP1 was immunoprecipitated from SW480 lystaes and following immunobloting the membrane was stained with the indicated antibodies. […] Following V5 IP the membrane was blotted with a phosphotyrosine antibody. […] (H) Proliferation or anchorage independent growth (I) of Hutu80 cell lines expressing YAP1 Y357F and infected with shRNAs targeting YAP1. (J) YAP1 protein levels of cells in (H) and (I).
In general terms: A western blot detects proteins with antibodies after separation by electrophoresis.

For a further assay, the target named is FYN (UniProt P06241 2-537, limits assumed). The assay is described as above. The protocol:
as §1

Chain of FYN (P06241 2-537 limits assumed): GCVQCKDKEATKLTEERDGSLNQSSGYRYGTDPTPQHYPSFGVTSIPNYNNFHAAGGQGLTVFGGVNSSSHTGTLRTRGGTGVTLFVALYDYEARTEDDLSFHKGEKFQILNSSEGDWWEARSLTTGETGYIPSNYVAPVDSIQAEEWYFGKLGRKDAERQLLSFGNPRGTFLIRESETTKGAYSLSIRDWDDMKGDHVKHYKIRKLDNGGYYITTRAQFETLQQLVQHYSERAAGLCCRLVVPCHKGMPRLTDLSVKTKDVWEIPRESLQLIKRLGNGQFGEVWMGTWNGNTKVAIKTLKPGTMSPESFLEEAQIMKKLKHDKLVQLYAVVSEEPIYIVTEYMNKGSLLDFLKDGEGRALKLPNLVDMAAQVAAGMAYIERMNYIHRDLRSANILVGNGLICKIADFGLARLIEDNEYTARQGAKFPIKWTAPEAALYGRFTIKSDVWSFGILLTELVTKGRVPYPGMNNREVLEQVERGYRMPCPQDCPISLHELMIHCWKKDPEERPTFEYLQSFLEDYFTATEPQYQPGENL

B1: YAP1 (65 kd Yes-associated protein) (other, UniProt P46937-3 1-454, looked up)
chain: MDPGQQPPPQPAPQGQGQPPSQPPQGQGPPSGPGQPAPAATQAAPQAPPAGHQIVHVRGDSETDLEALFNAVMNPKTANVPQTVPMRLRKLPDSFFKPPEPKSHSRQASTDAGTAGALTPQHVRAHSSPASLQLGAVSPGTLTPTGVVSGPAATPTAQHLRQSSFEIPDDVPLPAGWEMAKTSSGQRYFLNHIDQTTTWQDPRKAMLSQMNVTAPTSPPVQQNMMNSASAMNQRISQSAPVKQPPPLAPQSPQGGVMGGSNSNQQQQMRLQQLQMEKERLRLKQQELLRQVRPQELALRSQLPTLEQDGGTQNPVSSPGMSQELRTMTTNSSDPFLNSGTYHSRDESTDSGLSMSSYSVPRTPDDFLNSVDEMDTGDTINQSTLPSQQNRFPDYLEAIPGTNVDLGTLEGDGMNIEGEELMPSLQEALSSDILNDMESVLAATKLDKESFLTWL
notes: Endogenous protein in the co-immunoprecipitations from colon cancer cell lysates; also called WT YAP1
For the molecule B1, the binding result (in assay [1]; with FYN) was “no binding” throughout.
